The values below come from PMC7172368 (Antiviral Research, 2007).

The data set concerns the molecule itself. The data set is described as follows: native gel or EMSA.

B1: recombinant porcine ficolin α with C-terminal V5 and 6 x His tags (natural protein)
chain: not shown
On to B1, for which the binding result was “binds”.
